# Data published in US20020165381A1, “Human androgen receptor variants” (priority 2000, published 2002).
# T1: AR (Homo sapiens, UniProt P10275)
# T1 sequence (P10275 1-920): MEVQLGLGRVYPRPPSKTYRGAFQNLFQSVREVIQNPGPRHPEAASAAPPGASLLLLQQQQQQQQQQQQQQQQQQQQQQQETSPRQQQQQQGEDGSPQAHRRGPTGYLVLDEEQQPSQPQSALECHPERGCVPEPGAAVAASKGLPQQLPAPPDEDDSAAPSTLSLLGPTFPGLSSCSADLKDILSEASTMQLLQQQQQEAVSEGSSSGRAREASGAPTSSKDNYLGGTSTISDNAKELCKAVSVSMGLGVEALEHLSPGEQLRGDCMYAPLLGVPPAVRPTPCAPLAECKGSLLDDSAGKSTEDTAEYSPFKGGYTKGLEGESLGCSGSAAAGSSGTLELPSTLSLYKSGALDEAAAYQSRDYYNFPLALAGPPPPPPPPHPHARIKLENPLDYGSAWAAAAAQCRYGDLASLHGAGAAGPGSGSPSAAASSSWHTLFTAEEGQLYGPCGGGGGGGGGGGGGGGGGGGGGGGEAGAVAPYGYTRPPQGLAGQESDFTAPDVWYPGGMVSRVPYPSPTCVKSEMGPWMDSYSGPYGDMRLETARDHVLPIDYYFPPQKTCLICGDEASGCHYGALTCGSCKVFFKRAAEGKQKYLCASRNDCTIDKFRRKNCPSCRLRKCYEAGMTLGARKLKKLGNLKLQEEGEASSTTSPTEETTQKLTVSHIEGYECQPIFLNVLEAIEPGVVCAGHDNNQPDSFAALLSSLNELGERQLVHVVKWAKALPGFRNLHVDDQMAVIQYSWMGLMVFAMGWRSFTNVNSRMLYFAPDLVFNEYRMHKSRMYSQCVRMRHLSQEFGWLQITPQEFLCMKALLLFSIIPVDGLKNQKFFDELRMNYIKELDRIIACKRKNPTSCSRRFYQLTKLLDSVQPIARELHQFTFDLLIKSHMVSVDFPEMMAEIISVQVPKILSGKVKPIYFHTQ
# How the values were obtained:
# AR [1] = biological target: T1, AR; assay: Transrepressing activity of AR42 and AR32 in CV-1 cells (luciferase reporter, Example 5); type: cell-based; design: expressed in transfected cells; host or cells: CV-1 cells; settings: constant amount of pSG5-AR, varying amounts of pSG5-AR42 or pSG5-AR32, after treatment with an androgen
# Excerpt: (§1) A vector for the transient expression of AR42, AR32 or AR is built in the pSG5 plasmid (Stratagene). A constant amount of pSG5-AR and varying amounts of pSG5-AR42 or pSG5-AR32 are transfixed in CV-1 cells. In the control, a pSGS plasmid, which contains an irrelevant cDNA of similar length, is cotransfixed with the pSG5-AR. In addition, a reporter plasmid, which contains one or more copies of a steroid-response element or a selective androgen-response element, coupled to a luciferase reporter gene, is cotransfixed. After treatment with an androgen, an increase in the reporter gene activity is measured.
# AR [2] = biological target: T1, AR; assay: Transrepressing activity: pSG5-AR and different amounts of pSG5-AR42 co-transfixed in PC-3 cells with MMTV reporter plasmid; type: cell-based; design: expressed in transfected cells; settings: 10 ng pSG5-AR, different amounts of pSG5-AR42, 100 ng MMTV reporter plasmid, R1881 10^-9 M
# Experimental: 10 ng of pSG5-AR and different amounts of pSG5-AR42 were co-transfixed in PC-3 cells. In addition, 100 ng of a reporter plasmid, which contains the MMTV promoter, was transfixed.
# as §1
# [3] = system: MMTV promoter reporter plasmid in PC-3 cells; assay: Transactivation reporter assay: pSG5-AR42 co-transfixed with MMTV promoter reporter plasmid in PC-3 cells, treated with androgens; type: cell-based, human; settings: 100 ng pSG5-AR42 + 100 ng MMTV reporter plasmid, R1881, testosterone or DHT at 10^-7 M
# Experimental: 100 ng of pSG5-AR42 was co-transfixed in PC-3 together with 100 ng of a reporter plasmid, which contains the MMTV promoter. These cells were then treated with various androgens (R1881: metribolone; T: testosterone; DHT: 5α-dihydrotestosterone) with a final concentration of 10^−7 M.
# A vector for the transient expression of AR42 or AR32 is built in the pSG5 plasmid (Stratagene). This vector is transfixed in CV-1 or PC-3 cells. Parallel to this, a reporter plasmid that contains one or more copies of a steroid response element or a selective androgen response element, coupled to a luciferase reporter gene, is cotransfixed. To find specific effectors of AR42 or AR32, a high-throughput screening of substance banks is to be performed. Substances that trigger the activity of the reporter gene at a concentration of 10^−6 M or less are further processed. The search for receptor antagonists is performed in the presence of 10^−9 M androgen, e.g., R1881. Substances are selected that at least divide in half the androgen induction at a concentration of 10^−6 M or less.
Molecule,transrepressing activity (reporter gene activity of stimulated AR) (AR [1]),transrepressing activity (reporter gene activity of stimulated AR) (AR [2]),transactivating function (reporter gene activity) [3]
"AR32: androgen receptor variant according to the invention with the amino acid sequence indicated in Seq ID NO 4 (protein, listed as Homo sapiens) MILWLHSLETARDHVLPIDYYFPPQKTCLICGDEASGCHYGALTCGSCKVFFKRAAEGKQKYLCASRNDCTIDKFRRKNCPSCRLRKCYEAGMTLGARKLKKLGNLKLQEEGEASSTTSPTEETTQKLTVSHIEGYECQPIFLNVLEAIEPGVVCAGHDNNQPDSFAALLSSLNELGERQLVHVVKWAKALPGFRNLHVDDQMAVIQYSWMGLMVFAMGWRSFTNVNSRMLYFAPDLVFNEYRMHKSRMYSQCVRMRHLSQEFGWLQITPQEFLCMKALLLFSINCERAASVHF",inhibit these transactivating effects of stimulated AR,–,–
"AR42: androgen receptor variant according to the invention with the amino acid sequence indicated in Seq ID NO 2 (protein, listed as Homo sapiens) MILWLHSLETARDHVLPIDYYFPPQKTCLICGDEASGCHYGALTCGSCKVFFKRAAEGKQKYLCASRNDCTIDKFRRKNCPSCRLRKCYEAGMTLGARKLKKLGNLKLQEEGEASSTTSPTEETTQKLTVSHIEGYECQPIFLNVLEAIEPGVVCAGHDNNQPDSFAALLSSLNELGERQLVHVVKWAKALPGFRNLHVDDQMAVIQYSWMGLMVFAMGWRSFTNVNSRMLYFAPDLVFNEYRMHKSRMYSQCVRMRHLSQEFGWLQITPQEFLCMKALLLFSIIPVDGLKNQKFFDELRMNYIKELDRIIACKRKNPTSCSRRFYQLTKLLDSVQPIARELHQFTFDLLIKSHMVSVDFPEMMAEIISVQVPKILSGKVKPIYFHTQ",inhibit these transactivating effects of stimulated AR,inhibited the transactivating effects of stimulated AR,does not have any transactivating function
